What all share (test): EMSA; EC50; 10 mM KH2PO4, 100 mM NaCl, 0.01% IGEPAL, 5 nM Cy5 DNA, 30 min at 37 C; pH not stated; 8% gel in 1x TBE at 4 C
Holding throughout (conditions): protein: recombinant; tags: N-terminal His6 (pET-28a NdeI-XhoI); chain copies: 2; label: 5' Cy5 on forward strand; blunt
On the technique in general: Mobility shift assays separate free from complexed probe on a gel.

In one series the target is T1, Banf1 H7Y (Homo sapiens, UniProt O75531 1-89, H7Y).
T1 sequence: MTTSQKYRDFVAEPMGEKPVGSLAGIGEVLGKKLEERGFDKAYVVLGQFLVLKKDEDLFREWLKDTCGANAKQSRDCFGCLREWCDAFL

The target of a further series is T2, Banf1 R75W (Homo sapiens, UniProt O75531 1-89, R75W).
T2 sequence: T1 sequence with Y7H, R75W

The target of the next series is T3, Banf1 N70T (Homo sapiens, UniProt O75531 1-89, N70T).
T3 sequence: T1 sequence with Y7H, N70T

Where a chain is given by its changes, count along the chain named.

The values below come from publication PMC8606531, “The Impact of Rare Human Variants on Barrier-To-Auto-Integration Factor 1 (Banf1) Structure and Function”.

B1: Cy5 40 bp dsDNA (dsDNA)
DNA 1: AGGAGCGCCAGACCCACCAAGAGCCCTCTATCGGTTGGGA
DNA 2: TCCCAACCGATAGAGGGCTCTTGGTGGGTCTGGCGCTCCT
Turning to B1, the “apparent K (half saturation)” value with Banf1 H7Y is 26.1 ± 5.02 nM; with Banf1 R75W it was 27.8 ± 3.17 nM; in the series with Banf1 N70T, 34.9 ± 4.38 nM.
